Laboratory results as given in article PMC3646955.

Columns and labels:
Assay in all cases: purified protein
Type in all cases: biochemical, Serratia marcescens
[1] = system: NC[C@H]1O[C@H](O[C@H]2[C@H](O)[C@@H](O[C@H]3O[C@H](CO)[C@@H](O)[C@H](N)[C@H]3O)[C@H](N)C[C@@H]2N)[C@H](N)C[C@@H]1O; details: 500 μM acetyl-CoA
[2] = system: CN[C@@H]1[C@@H](O)[C@@H](O[C@@H]2[C@@H](O)[C@H](O[C@H]3OC(CN)=CC[C@H]3N)[C@@H](N)C[C@H]2N)OC[C@]1(C)O; details: 500 μM acetyl-CoA
[3] = system: CCN[C@@H]1C[C@H](N)[C@@H](O[C@H]2OC(CN)=CC[C@H]2N)[C@H](O)[C@H]1O[C@H]1OC[C@](C)(O)[C@H](NC)[C@H]1O; details: 500 μM acetyl-CoA
[4] = system: NCC[C@H](O)C(=O)N[C@@H]1C[C@H](N)[C@@H](O[C@H]2O[C@H](CN)[C@@H](O)[C@H](O)[C@H]2O)[C@H](O)[C@H]1O[C@H]1O[C@H](CO)[C@@H](O)[C@H](N)[C@H]1O; details: 500 μM acetyl-CoA, 50 mM HEPES pH 7.5, AAC(6′) domain
[5] = system: NC[C@H]1O[C@H](O[C@H]2[C@H](O[C@@H]3O[C@H](CO)[C@@H](O)[C@H]3O)[C@@H](O)[C@H](N)C[C@@H]2N)[C@H](N)[C@@H](O)[C@@H]1O; details: 500 μM acetyl-CoA, 50 mM HEPES pH 7.5
[6] = system: NC[C@@H]1O[C@H](O[C@H]2[C@@H](O)[C@H](O[C@@H]3[C@@H](O)[C@H](N)C[C@H](N)[C@H]3O[C@H]3O[C@H](CN)[C@@H](O)[C@H](O)[C@H]3N)O[C@@H]2CO)[C@H](N)[C@@H](O)[C@@H]1O; details: 500 μM acetyl-CoA, 50 mM HEPES pH 7.5
[7] = system: O=c1ccn([C@@H]2O[C@H](COP(=O)(O)OP(=O)(O)OP(=O)(O)O)[C@@H](O)[C@H]2O)c(=O)[nH]1; details: 750 μM SPT, 50 mM Tris-HCl pH 7.5, 10 mM MgCl2, 50 mM KCl, 25 °C
[8] = system: O=P(O)(O)OP(=O)(O)OP(=O)(O)OC[C@H]1O[C@@H](n2cnc3c(O)ncnc32)[C@H](O)[C@@H]1O; details: 750 μM SPT, 50 mM Tris-HCl pH 7.5, 10 mM MgCl2, 50 mM KCl, 25 °C
[9] = system: CN[C@@H]1[C@H](O)[C@H](NC)[C@H]2O[C@@]3(O)C(=O)C[C@@H](C)O[C@H]3O[C@@H]2[C@H]1O; details: 200 μM ATP, 50 mM Tris-HCl pH 7.5, 10 mM MgCl2, 50 mM KCl, 25 °C
[10] = system: Nc1ccn([C@@H]2O[C@H](COP(=O)(O)OP(=O)(O)OP(=O)(O)O)[C@@H](O)[C@H]2O)c(=O)n1; details: 750 μM SPT, 50 mM Tris-HCl pH 7.5, 10 mM MgCl2, 50 mM KCl, 25 °C
[11] = 50 mM HEPES pH 7.5, AAC(6′) domain

NHis10-tagged ANT(3″)-Ii/AAC(6′)-IId (Serratia marcescens)
Km [1, 11]: 7.92 ± 0.53 µM
kcat [1, 11]: 3.84 ± 0.07 s⁻¹
kcat/Km [1, 11]: 485000 ± 34000 M⁻¹ s⁻¹
Km [2, 11]: 2.20 ± 0.60 µM
kcat [2, 11]: 2.93 ± 0.16 s⁻¹
kcat/Km [2, 11]: 1.33e+06 ± 370000 M⁻¹ s⁻¹
Km [3, 11]: 1.77 ± 0.41 µM
kcat [3, 11]: 1.91 ± 0.08 s⁻¹
kcat/Km [3, 11]: 1.08e+06 ± 250000 M⁻¹ s⁻¹
Km [4]: 0.556 ± 0.130 µM
kcat [4]: 2.92 ± 0.1 s⁻¹
kcat/Km [4]: 5.25e+06 ± 1.25e+06 M⁻¹ s⁻¹

NHis6-tagged AAC(6′)-IId(267-463) (Serratia marcescens)
Km ([1]; 50 mM HEPES pH 7.5): 14.8 ± 3.4 µM
kcat ([1]; 50 mM HEPES pH 7.5): 3.73 ± 0.25 s⁻¹
kcat/Km ([1]; 50 mM HEPES pH 7.5): 252000 ± 60000 M⁻¹ s⁻¹
Km [5]: 69.3 ± 4.5 µM
kcat [5]: 5.7 ± 0.12 s⁻¹
kcat/Km [5]: 82200 ± 5600 M⁻¹ s⁻¹
Km ([2]; 50 mM HEPES pH 7.5): 4.92 ± 1.14 µM
kcat ([2]; 50 mM HEPES pH 7.5): 5.35 ± 0.27 s⁻¹
kcat/Km ([2]; 50 mM HEPES pH 7.5): 1.09e+06 ± 260000 M⁻¹ s⁻¹
Km [6]: 32.1 ± 11.1 µM
kcat [6]: 11.1 ± 1 s⁻¹
kcat/Km [6]: 346000 ± 124000 M⁻¹ s⁻¹
Km ([3]; 50 mM HEPES pH 7.5): 3.87 ± 0.90 µM
kcat ([3]; 50 mM HEPES pH 7.5): 3.21 ± 0.2 s⁻¹
kcat/Km ([3]; 50 mM HEPES pH 7.5): 829000 ± 200000 M⁻¹ s⁻¹

CHis6-tagged ANT(3″)-Ii(1-266) (Serratia marcescens)
Km [7]: 26.2 ± 5.7 µM
kcat [7]: 0.603 ± 0.047 s⁻¹
kcat/Km [7]: 23000 ± 5300 M⁻¹ s⁻¹
Km [8]: 12.6 ± 1.5 µM
kcat [8]: 0.481 ± 0.013 s⁻¹
kcat/Km [8]: 38100 ± 4500 M⁻¹ s⁻¹
Km [9]: 0.123 ± 0.015 µM
kcat [9]: 5.13 ± 0.11 s⁻¹
kcat/Km [9]: 4.15e+07 ± 5.1e+06 M⁻¹ s⁻¹
Km [10]: 33.3 ± 5.6 µM
kcat [10]: 0.709 ± 0.04 s⁻¹
kcat/Km [10]: 21300 ± 3800 M⁻¹ s⁻¹
